The values that follow come from US7838288B2, “Modulators of odorant receptors” (Duke University, priority 2004, dated 2010).

For one experiment, the system named is olfr62. The experiment in a line: CRE-luciferase reporter gene assay, olfr62. It is filed as cell-based, mouse. To be noted: Hana3A cells. The method, then:
Four ORs (S6/79, S18, S46 and S50) previously assayed using other techniques (see, e.g., Malnic, B., et al. (1999) Cell 96, 713-723; herein incorporated by reference in its entirety) were tested against an assay panel of aliphatic alcohols, aldehydes and acids and some other odorants. Additionally, five “orphan” class I ORs (MOR23-1, MOR31-4, MOR31-6, MOR32-5 and MOR32-11) whose cognate ligands were unknown were tested. At a suprathreshold concentration of 100 uM, all these ORs were odorant selective, responding to only a small subset of the odorants tested (see FIG. 11A). This specificity was retained at lower, more physiologically relevant concentrations. Many of these ORs responded to odorants present in micromolar concentrations. The cell-surface expression of these ORs by living-cell immunofluorescence were evaluated. Some ORs (S18, MOR31-4, MOR31-6 and MOR32-5) were strongly expressed while other ORs (S6, S50, MOR23-1, MOR32-11) were weakly expressed (see FIG. 12). The present invention is not limited to a particular mechanism. Indeed, an understanding of the mechanism is not necessary to practice the present invention. […] Finally, two additional orphan class II ORs, MOR203-1 and olfr62, were tested against a panel of 139 odorants. […] Olfr62 responded to coumarine and piperonal (see FIG. 11C). […] When parental 293T cells for these ORs were used in this luciferase assay, little or no response to the odorants was observed. The present invention is not limited to a particular mechanism. Indeed, an understanding of the mechanism is not necessary to practice the present invention.
Dual-Glo system (Promega) for luciferase assay was used. CRE-Luciferase (Stratagene) was used to measure the receptor activities. Renilla luciferase driven by constitutively active SV40 promoter (pRL-SV40: Promega) was used as an internal control. Cells were plated on poly-D-lysine coated 96 well plates (BIOCOAT, Beckton Dickinson). After 8 hours (for experiments shown in FIGS. 8B and 8C) or 12 hours (for experiments shown in FIG. 8D and FIG. 11) after transfection, the medium was replaced with CD293 chemically defined medium (Invitrogen) and the plates were incubated for one hour at 37 degrees C. The medium was replaced with 50 ul of odorant solutions dissolved in CD293 and incubated for 10 hours (for experiments shown in FIGS. 8B and 8C) or 4 hours (for experiments shown in FIG. 8D and FIG. 11) at 37 degrees C. The manufacture's protocol for measuring luciferase and Renilla luciferase activities was followed. Luminescence was measured using Wallac Victor 1420 (Perkin-Elmer). Normalized luciferase activity was calculated as [Luc (N)-Luc (0)]/RL (N), where Luc (N)=Luminescent count of a certain well, Luc (0)=Luminescent count without odorant for each OR, and RL (N)=Luminescent count of Renilla Luciferase of each well. For cAMP assays, cells were plated onto 24-well plate. […]. Prism software (Graphpad) was used for data analysis. […]
In general terms: In a reporter assay the amount or activity of a reporter protein is the signal.

A further experiment has as its system MOR203-1. Kind of experiment: Living-cell staining of cell-surface MOR203-1. It is filed as cell-based, mouse. Conditions: accessory protein co-transfected in 293T cells. An excerpt:
After hypothesizing that mammalian ORs require accessory protein(s) for functional cell surface expression, a search was instituted for detecting such molecule(s). Long-SAGE (serial analysis of gene expression) libraries (see, e.g., Saha, S., et al., (2002) Nat Biotechnol 20, 508-512; herein incorporated by reference in its entirety) were constructed from single olfactory neurons as well as neurons from the vomeronasal organ and genes were collected that are expressed by these neurons. To identify candidate genes expressed by the olfactory neurons Digital Differential Display (see, e.g., http://www, followed by, .ncbi.nlm.nih.gov/UniGene/info_ddd.shtml) was also used. Candidate genes were investigated for ORFs that encode membrane associated proteins. Genes were selected with similarities to known chaperones and cloned the cDNAs from olfactory epithelium cDNAs. The mRNA expression of each gene was verified by in situ hybridization. After isolating and subcloning into mammalian expression vectors, each cDNA together with a mouse OR (MOR203-1) tagged with a 20 N-terminal amino acids of rhodopsin (Rho-tag), was transfected into 293T cells. We measured whether these clones had any effect on the cell-surface expression of ORs by staining living cells using antibodies against the Rho-tag (see, e.g., Laird, D. W., and Molday, R. S. (1988) Invest Opthalmol Vis Sci 29, 419-428; herein incorporated by reference in its entirety). When MOR203-1 was transfected alone, antibody staining detected only faint cell-surface expression in less than 1% of the cells. A schematic diagram outlining the screening procedure utilized with the present invention is provided at FIG. 1.
293T cells were maintained in minimal essential medium containing 10% fetal bovine serum (M10). Lipofectamine 2000 (Invitrogen) was used for transfection. In live-cell staining, 16 hours after transfection, cells were incubated in M10 containing anti rhodopsin antibody, 4D2 (see, e.g., Laird, D. W., and Molday, R. S. (1988) Invest Opthalmol V is Sci 29, 419-428; herein incorporated by reference in its entirety) and 15 mM NaN3 at 4 degrees C. for 1 hour. After washing, cells were incubated with Cy3-conjugated anti mouse IgG (Jackson Immunologicals), washed and mounted. For FACS analysis, 4D2 and PE-conjugated anti mouse IgG (Jackson Immunologicals) were used to monitor the Rho tagged receptor expression. Anti HA rabbit antibodies (Sigma) and Alexa 488 conjugated anti rabbit IgG (Molecular Probes) was used to stain the HA-β2 adrenergic receptor. To establish the Hana3a cells, 1 ug/ml of puromycin was used for selection. 96 colonies were picked and assayed using luciferase assay using OREG.

Experiment [1] has as its target T1, mouse odorant receptor OREG (Mus musculus, UniProt Q920P2).
T1 construct: expressed in transfected cells; host or cells: 293T cells (with or without co-transfected REEP1/RTP1/RTP2) and Hana3A cells (293T stably expressing mouse REEP1, RTP1, RTP2, Galpha-olf)
T1 sequence (Q920P2 1-313): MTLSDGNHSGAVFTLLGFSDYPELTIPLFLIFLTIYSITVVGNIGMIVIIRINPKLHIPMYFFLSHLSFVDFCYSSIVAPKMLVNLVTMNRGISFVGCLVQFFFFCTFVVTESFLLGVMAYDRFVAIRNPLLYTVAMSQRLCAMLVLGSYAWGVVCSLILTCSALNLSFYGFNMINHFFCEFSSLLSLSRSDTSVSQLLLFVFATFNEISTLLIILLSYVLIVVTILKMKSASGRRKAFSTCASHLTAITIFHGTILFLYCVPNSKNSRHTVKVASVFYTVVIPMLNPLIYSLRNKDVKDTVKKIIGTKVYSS
The experiment in a line: CRE-luciferase reporter gene assay, OREG. It is filed as cell-based. To be noted: 293T cells; compared to OR alone or control pCI. An excerpt: Poor odorant evoked signaling activity in heterologous cell culture systems expressing ORs has been attributed to the poor cell surface expression of ORs. The identification of REEP and/or RTP allowed a direct assessment of this issue. A luciferase reporter gene assay was employed in which a cAMP responsive element (CRE) mediated luciferase gene expression (see FIG. 8A). Because OR activation leads to an increase in cAMP, activation of the mouse odorant receptor OREG by its ligand eugenol was measured in the presence and absence of REEP and/or RTP (see, e.g., Kajiya, K., et al. (2001) J Neurosci 21, 6018-6025; Touhara, K., et al., (1999) Proc Natl Acad Sci USA 96, 4040-4045; each herein incorporated by reference in their entireties). As reported previously, eugenol increased levels of OREG dependent luciferase activity (see, e.g., Katada, S., et al. (2003) Biochem Biophys Res Commun 305, 964-969; herein incorporated by reference in its entirety).
To facilitate analysis of odorant-OR interactions, 293T cell lines were established which stably express REEP1, RTP1, RTP2 and Gαolf, the G protein alpha subunit that couples to OR (see, e.g., Belluscio, L., et al. (1998) Neuron 20, 69-81; Jones, D. T., and Reed, R. R. (1989). Science 244, 790-795; each herein incorporated by reference in their entireties). To establish such cells, linearized expression vectors containing mouse REEP1, RTP1, RTP2 and Gαolf ORFs were transfected into 293T cells with PGK-Pac (puromycin resistant gene) (see, e.g., Watanabe, S., et al. (1995) Biochem Biophys Res Commun 213, 130-137; herein incorporated by reference in its entirety). […] Enhanced cell-surface expression was observed when OREG or other ORs were transfected in Hana3A cells and immunostained (see FIG. 10). […] Expression of Gαolf alone in 293T cells had little or no effect on OR activation using this assay.
Dual-Glo system (Promega) for luciferase assay was used. CRE-Luciferase (Stratagene) was used to measure the receptor activities. Renilla luciferase driven by constitutively active SV40 promoter (pRL-SV40: Promega) was used as an internal control. Cells were plated on poly-D-lysine coated 96 well plates (BIOCOAT, Beckton Dickinson). After 8 hours (for experiments shown in FIGS. 8B and 8C) or 12 hours (for experiments shown in FIG. 8D and FIG. 11) after transfection, the medium was replaced with CD293 chemically defined medium (Invitrogen) and the plates were incubated for one hour at 37 degrees C. The medium was replaced with 50 ul of odorant solutions dissolved in CD293 and incubated for 10 hours (for experiments shown in FIGS. 8B and 8C) or 4 hours (for experiments shown in FIG. 8D and FIG. 11) at 37 degrees C. The manufacture's protocol for measuring luciferase and Renilla luciferase activities was followed. Luminescence was measured using Wallac Victor 1420 (Perkin-Elmer). Normalized luciferase activity was calculated as [Luc (N)-Luc (0)]/RL (N), where Luc (N)=Luminescent count of a certain well, Luc (0)=Luminescent count without odorant for each OR, and RL (N)=Luminescent count of Renilla Luciferase of each well. For cAMP assays, cells were plated onto 24-well plate. […]. Prism software (Graphpad) was used for data analysis.

Regarding `O=C1Cc2ccccc2O1` [2-coumaranone, 2-Coumaranone], the “response of olfr62 to odorant (luciferase)” value with olfr62 is recorded as “preferred ligand”.
The same measure, in the same setting: then `O=c1ccc2ccccc2o1` [coumarin, Coumarin], with “responded”; and `O=Cc1ccc2c(c1)OCO2` [piperonal, Piperonal], with “responded”.

B1: REEP2: other member of the REEP family; murine SEQ ID NO: 22 (protein, listed as Mus musculus)
chain: MVSWIISRLVVLIFGTLYPAYSSYKAVKTKNVKEYVKWMMYWIVFAFFTTAETLTDIILSWFPFYFELKIAFVIWLLSPYTKGSSVLYRKFVHPTLSNKEKEIDEYITQARDKSYETMMRVGKRGLNLAANAAVTAAAKGQGVLSEKLRSFSMQDLTLIRDEDALPLQGPDGRLQPGPVGLLDTIEDLGDEPALSLRSSTSQPDPRTETSEDDLGDKAPKRTKPIKKVPRAEPPASKTLKTRPKKKSSGGGDSA
With B1, the “cell surface expression of MOR203-1” value in the experiment on MOR203-1 was “not observed”.

B2: RTP2: a close relative of RTP1; murine SEQ ID NO: 34, human SEQ ID NO: 38 (protein, listed as Mus musculus)
chain: MSTSLTTCEWKKVFYEKMEVAKPADSWELIIDPTLKPNELGPGWKQYLEQHASGRFHCSWCWHTWQSANVVILFHMHLDRAQRVGSVRMRVFKQLCYQCGTSRLDESSMLEENIEGLVDNLITSLREQCYDEDGGQYRIHVASRPDSGLHRSEFCEACQEGIVHWKPSEKLLEEDAAYTDASKKKGQAGFISSFFSFRWCLFWGTLCLVIVYLQFFRGRSGFL
Regarding B2, the “OREG activity by luciferase, accessory protein co-expressed” value in experiment [1] was “enhanced luciferase activities compared to OR alone”. The “cell surface expression of MOR203-1” value in the experiment on MOR203-1 is given as “also enhanced cell surface expression”.

B3: RTP4: other member of the RTP family; murine SEQ ID NO: 36 (protein, listed as Mus musculus)
chain: MLFPDDFSTWEQTFQELMQEEKPGAKWSLHLDKNIVPDGAALGWRQHQQTVGRFQCSRCCRSWTSAQVMILCHMYPDTLKSQGQARMRIFGQKCQKCFGCQFETPKFSTEIIKRILNNLVNYILQRYYGHRKIALTSNASLGEKVTLDGPHDTRNCEACSLNSHGRCALAHKVKPPRSPSPLPNSSSPSKSCPPPPQTRNTDFGNKTLQDFGNRTFQGCREPPQREIEPPLFLFLSIAAFALFSLFTR
As to B3, in experiment [1], the “OREG activity by luciferase, accessory protein co-expressed” value is listed as “did not produce a significant increase”. For the same molecule, in the experiment with MOR203-1, the “cell surface expression of MOR203-1” value is given as “not observed”.
